From the supplement of paper PMC12042874
± gives the uncertainty stated by the source.

Experiment: amyloid nucleation score (Sup35N fusion, yeast selection) (log enrichment); library NNK3; higher = more nucleation; inactive = no reads after selection
Outline: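 Nucleation score: DiMSum log enrichment of output over input reads, centred on the mode score of non-aggregating sequences. Only sequences with at least 100 input reads were kept. Reads came from Illumina sequencing of plasmid inserts before and after 7 days of growth at 30°C without adenine and uracil, in psi-negative yeast expressing Sup35N fused to peptides of 20 random codons after 24 hours of induction with 100 μM copper sulfate.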

| Substance | amyloid nucleation score |
| --- | --- |
| QTNLGPFVPSYGCFLCWMEG | inactive |
| VVYYFKMLMGVTLYSMVIWQ | inactive |
| GRSRLQQVIHLAFTIKSVNG | inactive |
| SSMYISAPSLCYLDFGLEKW | inactive |
| TICQADSRSSFQGLDCRRVR | -1.01 ± 2.5 |
| IFCKPWGSSFRIEPVAGTWI | inactive |
| TLLFY | inactive |
| LAVTFVHRLCWILLFWD | inactive |
| IVYLAVFRWGSMSKSRFGFD | inactive |
| LFYGSTCIGTDM | -1.07 ± 1.1 |
| RYKGFINVLC | inactive |
| LSKNSEILIYAYVLETFSCS | inactive |
| FIRTGELLFLVEWPLVCYTK | inactive |
| VIKTHMWLGL | 0.633 ± 0.24 |
| NMIEVI | inactive |
| RIKFNHTAFNWFQIF | 1.69 ± 0.091 |
| DATRSCLWMYAIVYNACIGH | inactive |
| ASWKLITCQNSAFR | inactive |
| QWCCVTRFIGYSKGYGRKAP | inactive |
| ILNISCFYEWYDHTLNSQSV | -0.203 ± 0.42 |
| VMYGIL | inactive |
| LPRLFVVDYPSQ | inactive |
| QGSMLRHY | inactive |
| SFFLVSWLGALTVVIPVQ | inactive |

| Substance | amyloid nucleation score |
| --- | --- |
| RMVDFADF | inactive |
| WYMHTTLD | inactive |
| CWTTINVSGCPNVGGGTVLQ | 0.9 ± 0.17 |
| GKIFMSVTFF | 2.43 ± 0.054 |
| LSLTRNSH | inactive |
| TVSICSGVSRVWKHLHYMMV | inactive |
| WFVRIIQLIT | inactive |
| KLFGTKIVIVDVDSLCYMVL | inactive |
| FVLFAYWHARPNTISRGCDH | inactive |
| SFICGINNELVK | inactive |
| YFVLFVRQCVKLVMRFGSED | inactive |
| PGLLLNRMLDARFM | inactive |
| KQRVWR | inactive |
| SLRFISSLWV | inactive |
| YNLGRNS | inactive |
| RRLSSHLFMLWYMVR | inactive |
| CLKVSTKCFW | 0.097 ± 0.52 |
| SLRFMLWLLL | inactive |
| NWENILGDSYLCVKWSL | inactive |
| PRRTNRVNKSISSVLSLRIG | 0.517 ± 0.57 |
| PPSISSPFALRVFTFVLRY | inactive |
| GRARNHHRKNRGIGL | inactive |
| RCCLNTVPSAFTGYKNPTVK | inactive |
| DSGLFKYSYGLWEKLLFYRM | inactive |

| Substance | amyloid nucleation score |
| --- | --- |
| LLSLIT | inactive |
| MRRSMAVAMNRSVLYDEC | 0.581 ± 0.16 |
| ETQWFEI | inactive |
| EVSWD | inactive |
| RSDSADLIKG | inactive |
| QLVFYHVDLHILPFWSAI | 2.15 ± 0.081 |
| IHYGEYNFLGKSRWNHLFFF | inactive |
| FVKSVRYSL | 1.45 ± 0.064 |
| NYYYMYGKCSI | 2.28 ± 0.082 |
| LNLVVRHFPTNR | inactive |
| ITNCFWHWIRAISYANAANS | inactive |
| ERPSLVEW | inactive |
| LLSTTSAVAGGMACVSRNMW | inactive |
| RIFYKVDTDGIIIIVYS | inactive |
| KGGCW | inactive |
| TVKVYTWNY | 1.93 ± 0.09 |
| GYYPLYVTFNSMCEFNIQLQ | 3.11 ± 0.051 |
| NFRSSI | inactive |
| RLTHLLHCYTI | inactive |
| TQGFLNKAGNVLSVIMDRIR | inactive |
| RVFGCKKGGSRLW | inactive |
| KSSSAYNRSDHGLMLDRRTQ | inactive |
| LSLYPFMWKYIIGAGKWLFL | inactive |
| NAGHICFVVVTKWREFASVY | inactive |

| Substance | amyloid nucleation score |
| --- | --- |
| NYGLLQFISIWSNILVHSNV | inactive |
| TYSVGHR | inactive |
| FTMSMYKGFRRCA | inactive |
| PFSSFWVTRTLIALWYSLRT | inactive |
| GLNLISISFRAGFAGMHRRA | 1.82 ± 0.099 |
| YVDLAGLMLMADMA | inactive |
| ELRELFQNCL | inactive |
| TPRKVVDNGGLIDFKVYRLL | inactive |
| SFPASFSYRNGFVWLNFWVV | inactive |
| LVHIGFWCEVVQPLSCTDTS | 0.028 ± 0.65 |
| ITNCLTSACRTSLFMKTQII | inactive |
| QHNSK | inactive |
| DIVGHIKSLMFLVLEDTSSP | inactive |
| RSVQSVFNTIGCQTYVSPVW | inactive |
| RECDFFLWAYYLVNIQLRVQ | -0.27 ± 0.66 |
| YVFDHDIGQ | inactive |
| VNTLPQLLSLYSDLLRGESL | -0.218 ± 1.4 |
| VFVVGSVSRCCKKLVT | inactive |
| YSYIEGL | inactive |
| FVSLLWLRGDVVHALFIQWM | inactive |
| TFFLYVKIRVALNIRVPGVR | inactive |
| SFLPSNSFFKYQCVMWC | inactive |
| IYIKCFNVSFLRSADWSKCA | inactive |
| RQNVWTLVPLVKFRLSNTQT | inactive |

| Substance | amyloid nucleation score |
| --- | --- |
| AVIRFCPGRNSESDSRAHRP | inactive |
| PSSLKCKLAI | inactive |
| SAYYCLCMLMGHHWGRNELY | 0.277 ± 0.57 |
| RTWDYVLLGLLLLDYYRILA | inactive |
| GFYVLMISVTLMDSQTPLR | 1.65 ± 0.11 |
| NSKGMI | inactive |
| PEFYA | inactive |
| VLSQRVPQMHMTNGVTEASV | inactive |
| NSLCSLVLTLIWWIKCPCDV | inactive |
| NKNSVFSLSYPYYVTCVGTY | inactive |
| CNCVAKDKVMLHVSRRRADF | 0.201 ± 0.72 |
| DLSKTGTSNNLLFTERISDI | inactive |
| SGGLRLLGKSLLWTAVCTNT | inactive |
| FIYDEQSSDSVV | inactive |
| TVPVVREVLRLRVLRIFGVG | inactive |
| GSIVFGCSWASQSVCQDQWV | inactive |
| HRHNVGLCCAGDWHLVELGS | 2.06 ± 0.064 |
| YWNYQMVCFCVNCV | 2.17 ± 0.075 |
| IYTSFVTMERALSMFSPLFH | inactive |
| GELPLRVKVKSFHTDTSLRK | 0.614 ± 0.29 |
| RWTNNRSEIGAPYGWPTAS | inactive |
| CASPSGFSSQGVTWFVEV | inactive |
| DDECELNMRYNGREYQGTDG | inactive |
| CTKKM | inactive |

| Substance | amyloid nucleation score |
| --- | --- |
| YALLKHSTWYRVGQF | inactive |
| NYYNQT | inactive |
| YQRGVRFRSHWMRSGKWDHF | inactive |
| LLEIDVGISRCLGVTSETFW | inactive |
| ARMLSVYSSESQCVTPGWCC | inactive |
| VFASQ | 1.3 ± 0.13 |
| NSMRVKVRTLTVYISEFTVS | inactive |
| NHGLLTKGMISAFRII | inactive |
| PNICGLGYYRLWSMLGITCW | inactive |
| IFVLDASMVMSFYVSVDASS | 0.989 ± 0.093 |
| TVIWLYIFRSQMPPVNPMRL | inactive |
| FIILKYGLYM | 0.507 ± 0.14 |
| PVLSYMRMSI | inactive |
| RGIEVMDLTLARAHKRA | inactive |
| QLKSVRACGRRGPLSQ | inactive |
| SNASIYRSFWWGKYSRA | -0.619 ± 0.82 |
| VVSSRLDAALDCWVREDCGV | inactive |
| APIVKL | inactive |
| YVDCYRFAVMQEFPCQYRGD | inactive |
| ELGGFFNEAGVTNHPIMS | inactive |
| WTRHGSEFVCYNSGHLWVFD | 0.164 ± 0.31 |
| WTGMPRTGWDGPRYKALSRS | inactive |
| QAYAS | -0.099 ± 0.96 |
| SPARRLAAFGFVVL | -0.385 ± 1.2 |

| Substance | amyloid nucleation score |
| --- | --- |
| CWEFYVVLYRLLGICKIRVL | inactive |
| QWVSLGLVGVGQ | inactive |
| HVIFFYILAFYNHSMGRTAV | inactive |
| RCEFIFS | inactive |
| AFYFRT | inactive |
| VQDPDL | inactive |
| VWVHA | inactive |
| IISQIRCFNLPEVPSSTMCL | inactive |
| AWQYVGMISFM | inactive |
| MKFFVNLAYIFFRFFSLRLL | inactive |
| MVSNNGFIRSLVENPTPIQD | inactive |
| ANNLAFSRGG | -0.977 ± 1.5 |
| CCGINGIKLAAANRWSPVEH | inactive |
| REASCGIDRMIRRCTERLSC | inactive |
| TLDHEWGFLSEKATVL | inactive |
| FLRNIFDGRTWTFKDSNMSH | inactive |
| YRLQLPYSVNEAVFLLVGSK | inactive |
| YCSLLSDERGSSVTGILAVF | inactive |
| NFVMLEKPDRTDLPGCTKQR | inactive |
